Read-outs that look alike come from different tables or passages of the source. Values belong to the binder of their own block, whether it stands above or below them.
How the values were obtained:
Experiment in all cases: SPR
[1] = target: full-length p97 A232E (MSP1 mutant) (UniProt P55072 1-806, A232E)
[2] = target: T1, full-length wild-type p97/VCP (UniProt P55072 1-806)
[3] = target: full-length p97 R155H (MSP1 mutant) (UniProt P55072 1-806, R155H)
[4] = target: T1, full-length wild-type p97/VCP; remark: listed apart in the source
[5] = target: T1, full-length wild-type p97/VCP; remark: listed apart in the source

T1 sequence (P55072 whole entry): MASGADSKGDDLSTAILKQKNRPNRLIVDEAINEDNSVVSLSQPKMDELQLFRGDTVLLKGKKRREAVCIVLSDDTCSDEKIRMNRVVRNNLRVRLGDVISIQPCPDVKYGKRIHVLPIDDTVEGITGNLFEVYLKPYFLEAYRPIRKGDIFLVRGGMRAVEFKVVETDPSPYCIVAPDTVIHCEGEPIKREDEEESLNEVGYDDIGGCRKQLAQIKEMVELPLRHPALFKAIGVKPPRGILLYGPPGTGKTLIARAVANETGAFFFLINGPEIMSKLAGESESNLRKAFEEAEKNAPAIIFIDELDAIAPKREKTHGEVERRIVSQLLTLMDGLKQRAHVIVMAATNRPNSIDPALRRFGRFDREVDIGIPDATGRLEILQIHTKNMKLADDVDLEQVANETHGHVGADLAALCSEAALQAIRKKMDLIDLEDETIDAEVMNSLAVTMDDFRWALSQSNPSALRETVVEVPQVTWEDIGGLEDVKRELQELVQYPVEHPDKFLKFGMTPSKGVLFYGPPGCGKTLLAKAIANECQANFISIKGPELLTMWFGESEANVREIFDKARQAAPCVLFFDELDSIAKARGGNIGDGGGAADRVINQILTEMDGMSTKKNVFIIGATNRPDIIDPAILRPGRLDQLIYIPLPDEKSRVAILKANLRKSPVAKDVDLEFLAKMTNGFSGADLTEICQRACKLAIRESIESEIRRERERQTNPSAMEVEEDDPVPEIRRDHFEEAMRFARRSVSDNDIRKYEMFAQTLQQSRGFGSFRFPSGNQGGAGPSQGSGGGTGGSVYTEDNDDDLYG
Sequence of full-length p97 R155H (MSP1 mutant) (P55072 whole entry R155H): as the sequence (P55072 whole entry) above, with R155H counted along it
Sequence of full-length p97 A232E (MSP1 mutant) (P55072 whole entry A232E): as the sequence (P55072 whole entry) above, with A232E counted along it

- KD, high-affinity site (two-site fit) [1]: 21 nM
- KD, high-affinity site (two-site fit) [2]: 184 nM
- KD, high-affinity site (two-site fit) [3]: 18 nM
B1: full-length human p47 (natural protein, UniProt Q9UNZ2 1-370, looked up)
chain: MAAERQEALREFVAVTGAEEDRARFFLESAGWDLQIALASFYEDGGDEDIVTISQATPSSVSRGTAPSDNRVTSFRDLIHDQDEDEEEEEGQRFYAGGSERSGQQIVGPPRKKSPNELVDDLFKGAKEHGAVAVERVTKSPGETSKPRPFAGGGYRLGAAPEEESAYVAGEKRQHSSQDVHVVLKLWKSGFSLDNGELRSYQDPSNAQFLESIRRGEVPAELRRLAHGGQVNLDMEDHRDEDFVKPKGAFKAFTGEGQKLGSTAPQVLSTSSPAQQAENEAKASSSILIDESEPTTNIQIRLADGGRLVQKFNHSHRISDIRLFIVDARPAMAATSFILMTTFPNKELADESQTLKEANLLNAVIVQRLT

- Kd [2]: 372 nM
- Kd [4]: 46 nM
- Kd [5]: 19 nM
B2: p37 (natural protein, human, UniProt Q14CS0 1-331, looked up)
chain: MAEGGGPEPGEQERRSSGPRPPSARDLQLALAELYEDEVKCKSSKSNRPKATVFKSPRTPPQRFYSSEHEYSGLNIVRPSTGKIVNELFKEAREHGAVPLNEATRASGDDKSKSFTGGGYRLGSSFCKRSEYIYGENQLQDVQILLKLWSNGFSLDDGELRPYNEPTNAQFLESVKRGEIPLELQRLVHGGQVNLDMEDHQDQEYIKPRLRFKAFSGEGQKLGSLTPEIVSTPSSPEEEDKSILNAVVLIDDSVPTTKIQIRLADGSRLIQRFNSTHRILDVRNFIVQSRPEFAALDFILVTSFPNKELTDESLTLLEADILNTVLLQQLK

From article PMC5224236 (ACS Chemical Biology, 2016)
